What all share (assay type): physicochemical
A short description of series [1]: HPSEC trace / molecular weight distribution of different Compound D loading conjugates. Here is the method: (§1) The molecular weight distributions of Composition C conjugate, PHF and PHF-GA were measured by high performance size exclusion chromatography (HPSEC) with RI detection. Separation was carried out on a GE Healthcare Superose 6 column using 50 mM pH=7.4 phosphate 0.9% NaCl as an fluent. Dextran standards (American Polymer Standards Corporation) were used to establish a calibration curve of known molecular weight vs. retention time. Molecular weight distributions (weight average molecular weight (“Mw”), D90, D50, D10) were calculated based on the polysaccharide standard curve.
Composition C batches were analyzed by high performance size exclusion chromatography. […] Batches B and E have the additional desirable property of relatively high Compound D loading; approximately 3-fold higher than Batches C and F.

Series [2] is described as follows: Solution appearance of Composition C batches. Here is the method: Physical properties of select Composition C batches were measured as described in the Methods section.
Series [3] can be described thus: Peak molecular weight at ~3 and ~60 mg/ml (concentration dependence). Here is the method:
as §1
Peak molecular weight values were measured for Composition C batches in solution at ˜3 mg/ml and at ˜60 mg/ml.

Molecules are shown by their SMILES.

The source of these data is patent publication US20130189218A1, “PHARMACEUTICAL FORMULATIONS FOR FUMAGILLIN DERIVATIVE-PHF CONJUGATES” (Mersana Therapeutics, Inc., priority 2011, published 2013).

Regarding `CO[C@H]1[C@H](C2(C)OC2CC=C(C)C)[C@]2(CC[C@H]1OC(=O)NCc1ccc(NC(=O)CCCC(=O)O)cc1)CO2` (some centres unmarked) [Compound D], the “SEC Trace” value in series [1] is recorded as 2 peaks (high. Also, the “Solution Appearance” value in series [2] was “Very slight”. In addition, the “% Change” value in series [3] (Mp at ~60 mg/ml vs ~3 mg/ml) is given as “+58%”. The compound also had a Mp at ~3 mg/ml in series [3] (~3 mg/ml in solution) of 57.8 kDa. The compound also returned a Mp at ~60 mg/ml in series [3] (~60 mg/ml in solution) of 91.2 kDa.
